# Reference: paper PMC3934934, “The Self-Interaction of a Nodavirus Replicase Is Enhanced by Mitochondrial Membrane Lipids” (PLoS ONE, 2014)
# B1: His-protA fragment aa 1–254, in vitro translated (domain or fragment)
# chain: MSSVIKTIVVKTLQCTVKCVCVGVRQQYGLLRRHPKTIACALVGGIIAHDVLHLYAAVYRVENPWEFVPTEGPRGVIVLRVYNALRFTAAKWRWNCWTIFGKFPFNSEQFSRIMETSTERKPDLRPLLVPAHETIEVYPCNNIHSHPRSAEFRSSANEYLVRSVRRAGYPPYVVSSSKRDFCDGNRFFYCPKDFGMQFRNDPISNNHALVFTDVDYYANMNRWLQLFLPTCLYTLVPTRLNYSNDEFAYRFENN
# notes: also called 1–254 His/protA; wt protein A fragment aa 1–254; source: in vitro translated in nuclease-treated rabbit reticulocyte lysates
# B2: His-protA fragment aa 255–480, in vitro translated (domain or fragment)
# chain: EIVYNVTGGGEYRHSLWDYKGDTVTVVDEYGNLLIFDIEQRRVQGDEQHRLIWLLPKAKITDPLWIVGPTEWYDKLLVRKTVQQGRLKILWEPIADDLSIGLHGSNYSVSLKGELFEAIRTRISCKDSTPYVSDVERMLREAKHKNFLTDAPILYHCFQDDVIIRPNVVKTGSFPVTYNAIPKKAPSVTEDPKMPGQVVTTPLVSQPALFAGKGFNADKACIEGRI
# notes: source: in vitro translated in nuclease-treated rabbit reticulocyte lysates
# B3: His-protA fragment aa 481–659, in vitro translated (domain or fragment)
# chain: EKVRNVTKFPIKYVRYAAEFVKLVIPETIAGTGVPNSIGMIREEQDKVAQRARFDRVAPIMSTQTENSIKAFIKTEMYAAAKAPRNISTMAPEITIQSSAYSLPMAKIFKKIPWYCPGKNPKEITLRLAEVCLQDPDHELEEGDYTCMDGTQSPDYSDLLLLPIYMRYFAKQYRGQFKN
# notes: as for B2
# B4: MBP-tagged full-length (FL) WhNV protein A (natural protein)
# chain: MSSVIKTIVVKTLQCTVKCVCVGVRQQYGLLRRHPKTIACALVGGIIAHDVLHLYAAVYRVENPWEFVPTEGPRGVIVLRVYNALRFTAAKWRWNCWTIFGKFPFNSEQFSRIMETSTERKPDLRPLLVPAHETIEVYPCNNIHSHPRSAEFRSSANEYLVRSVRRAGYPPYVVSSSKRDFCDGNRFFYCPKDFGMQFRNDPISNNHALVFTDVDYYANMNRWLQLFLPTCLYTLVPTRLNYSNDEFAYRFENNEIVYNVTGGGEYRHSLWDYKGDTVTVVDEYGNLLIFDIEQRRVQGDEQHRLIWLLPKAKITDPLWIVGPTEWYDKLLVRKTVQQGRLKILWEPIADDLSIGLHGSNYSVSLKGELFEAIRTRISCKDSTPYVSDVERMLREAKHKNFLTDAPILYHCFQDDVIIRPNVVKTGSFPVTYNAIPKKAPSVTEDPKMPGQVVTTPLVSQPALFAGKGFNADKACIEGRIEKVRNVTKFPIKYVRYAAEFVKLVIPETIAGTGVPNSIGMIREEQDKVAQRARFDRVAPIMSTQTENSIKAFIKTEMYAAAKAPRNISTMAPEITIQSSAYSLPMAKIFKKIPWYCPGKNPKEITLRLAEVCLQDPDHELEEGDYTCMDGTQSPDYSDLLLLPIYMRYFAKQYRGQFKNLYNQIYKQRATTSSGVPYNPEMTIRSGSSITTHAGTLNNAFNIYAALRDMGYDETTAWDKVGAVFGDDSLNANHQGEFHSYIEHVTKVLGMRYKSNLRERGQPVLFLGRYFVDPITSYDSFADPMRTIGKLHATANKNVSVEQGAANKAHGYITTDSKTPIIGAWARRVLEITKKKFKNGTGEEQYRCSNAWPQKDEAAIRAAMAAVLEVDEAQLIAQNEAVLKVNSLDQFPVVFDTYYDHKQLAEVDGQLVGTDLHIKEEDERQPETSIDSVPSTGPPPSNGDPNAGGKPTDGPSKGKRKVKGRRPRTAGDPATLRLTDAGSSRRVKPPRKLRPEAKRGGRPIETLVFKNSSLS
# notes: also called MBP-protA; 1–1014 MBP/protA; source: E. coli strain TB1, purified (amylose resin); not shown: MBP, N-terminal, kept
# How the values were obtained:
# [1] = target: T1, MBP-protA fragment aa 1–254 (Wuhan nodavirus (WhNV), UniProt Q3KSM3 1-254); experiment: pull-down; MBP fusion protein (1 µM) held on amylose resin, His-tagged protein (1 µM) in vitro translated in rabbit reticulocyte lysate; room temperature, 4 hrs; no lipids; Western blot with anti-His; signals given as % of FL to FL protein A self-interaction; conditions: one partner purified
# T1 construct: also called 1–254 MBP/protA; source: E. coli strain TB1, purified (amylose resin); not shown: MBP, N-terminal, kept
# T1 sequence: B1 chain
# [2] = target: T2, MBP-protA fragment aa 255–480 (Wuhan nodavirus (WhNV), UniProt Q3KSM3 255-480); experiment: as above; conditions: one partner purified
# T2 construct: source: E. coli strain TB1, purified (amylose resin); not shown: MBP, N-terminal, kept
# T2 sequence: B2 chain
# [3] = target: T3, MBP-protA fragment aa 481–659 (Wuhan nodavirus (WhNV), UniProt Q3KSM3 481-659); experiment: as above; conditions: one partner purified
# T3 construct: source: E. coli strain TB1, purified (amylose resin); not shown: MBP, N-terminal, kept
# T3 sequence: B3 chain
# [4] = target: the molecule itself; experiment: cross-linking; MBP-tagged protein in cross-linking buffer (10 mM HEPES pH 7.4, 50 mM MgCl2, 1 mM DTT, 1% glycerol, 0.03% glutaraldehyde), then 10% SDS-PAGE
binder,measurement,setting,value
B1,"homotypic interaction, % of FL to FL protein A self-interaction",[1],73%
B2,"homotypic interaction, % of FL to FL protein A self-interaction",[2],55%
B3,"homotypic interaction, % of FL to FL protein A self-interaction",[3],2%
B4,stoichiometry N,[4],2
